This test concerns the target T1, RNase/ANG inhibitor 1 (RNH1), endogenous protein in sorted mouse LKS cells and myeloid-restricted progenitors (mouse, UniProt Q91VI7 1-456).
T1 sequence (looked up): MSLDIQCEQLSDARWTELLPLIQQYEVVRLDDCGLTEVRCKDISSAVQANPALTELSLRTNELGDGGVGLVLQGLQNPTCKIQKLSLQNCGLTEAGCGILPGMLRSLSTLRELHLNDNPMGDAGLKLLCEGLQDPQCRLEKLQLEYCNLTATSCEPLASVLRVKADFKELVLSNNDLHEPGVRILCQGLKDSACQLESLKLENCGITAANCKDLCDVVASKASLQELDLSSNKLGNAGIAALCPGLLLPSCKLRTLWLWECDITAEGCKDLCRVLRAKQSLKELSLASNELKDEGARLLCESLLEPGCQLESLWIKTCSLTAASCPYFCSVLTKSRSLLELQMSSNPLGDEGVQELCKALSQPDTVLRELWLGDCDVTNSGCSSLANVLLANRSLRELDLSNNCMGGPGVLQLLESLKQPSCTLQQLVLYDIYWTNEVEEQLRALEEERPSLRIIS
Briefly: double immunofluorescence and acceptor-photobleaching FRET (AF488 donor, AF555 acceptor) on fixed sorted mouse cells. On the procedure: For ANG/RNH1 localization, cells were stained with an in-house made mouse ANG-specific C527 monoclonal antibody (10 μg/ml) and R127 rabbit pAb of RNH1 (5 μg/ml), followed with AF488-conjugated rabbit anti-mouse (Thermo Scientific A11059, 1:600 dilution) and AF555-conjugated goat anti-rabbit (Thermo Scientific A21428, 1:600 dilution). Appropriate isotype controls were used at the same concentration. Images were acquired using Nikon A1R confocal microscopy.
FRET was performed using the acceptor photo-bleaching method, as previously described (Pizzo et al., 2013). Briefly, AF488 was used as the donor and AF555 as the acceptors. Signals were photobleached to less than 10% of the initial fluorescent measurement. ROI measurements from LKS cells and myeloid-restricted progenitors were taken from 10 individual cells. FRET efficiency was calculated using the formula […], where ID and IDA are fluorescence intensities before and after photobleaching, respectively. FRET was performed using Leica SP2 confocal microscopy.
The exact subcellular compartment where tiRNA is produced by ANG is currently unknown, but it has been shown that tiRNA production is correlated to SG localization of ANG in stressed cells (Pizzo et al., 2013). […]

B1: Angiogenin (ANG), endogenous mouse protein in sorted LKS cells and myeloid-restricted progenitors (enzyme, UniProt P21570 25-145, looked up)
chain: QDDSRYTKFLTQHHDAKPKGRDDRYCERMMKRRSLTSPCKDVNTFIHGNKSNIKAICGANGSPYRENLRMSKSPFQVTTCKHTGGSPRPPCQYRASAGFRHVVIACENGLPVHFDESFFSL
notes: Endogenous intracellular protein, not the recombinant ANG preparation; also called ribonuclease 5; RNase5
Consider B1, for which the binding result is recorded as “binds”.

The values above are taken from patent publication US20190000885A1 (GENERAL HOSPITAL, published 2019).
